The numbers were not newly measured in publication PMC5694535, which cites them from elsewhere.

The pKd is the Kd on a negative log10 scale, so that one unit is a factor of ten.

The target in series [1] is Clathrin heavy chain TD (UniProt P11442).
For series [2], the target named is AP2 beta2 appendage (UniProt P63010).
Series [3] has the same target. Put plainly: ITC.
The target in series [4] is Clathrin heavy chain TD (UniProt P11442). The source holds these as a separate data set.

pKd: −log10 of the molar value. Read-outs that look alike come from different tables or passages of the source.

Sequence of UniProt P63010 (P63010 701-937): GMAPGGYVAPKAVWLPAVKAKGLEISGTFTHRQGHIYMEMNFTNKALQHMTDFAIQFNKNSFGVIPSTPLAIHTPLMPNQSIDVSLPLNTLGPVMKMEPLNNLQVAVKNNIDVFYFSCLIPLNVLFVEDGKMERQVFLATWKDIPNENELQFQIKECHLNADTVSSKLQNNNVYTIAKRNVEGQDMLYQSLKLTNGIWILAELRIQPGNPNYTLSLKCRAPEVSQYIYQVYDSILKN
Sequence of UniProt P11442 (P11442 1-363): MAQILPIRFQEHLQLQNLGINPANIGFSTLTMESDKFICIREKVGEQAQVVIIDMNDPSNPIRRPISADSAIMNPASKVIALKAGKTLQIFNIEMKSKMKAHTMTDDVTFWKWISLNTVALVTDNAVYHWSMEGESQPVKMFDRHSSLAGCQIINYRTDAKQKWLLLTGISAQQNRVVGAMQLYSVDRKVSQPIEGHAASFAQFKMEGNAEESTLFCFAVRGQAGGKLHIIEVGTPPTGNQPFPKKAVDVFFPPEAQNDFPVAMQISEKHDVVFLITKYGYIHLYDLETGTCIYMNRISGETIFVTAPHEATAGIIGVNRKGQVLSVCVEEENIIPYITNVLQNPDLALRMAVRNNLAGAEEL

AP180 peptide (from UniProt Q05140): the pKd with Clathrin heavy chain TD [1] is 3.07.
As to ARH peptide (from UniProt Q5SW96), the pKd with AP2 beta2 appendage [2] was 5.62.
With beta-arrestin, the pKd in the series with AP2 beta2 appendage [3] is 5.59.
As to “AP180 DLL/DLF motifs (from UniProt Q05140)”, the pKd in the series with Clathrin heavy chain TD [4] was 3.70.
